Experimental data from US20130171061A1.

Assays:
[1] = target: Human transferrin receptor on K562 cells (human) (UniProt P02786); assay: FACS of K562 cells with BSA-coupled fluorescent beads (negative control), 4 C, 1 h
[2] = target: Human transferrin receptor on K562 cells (human) (UniProt P02786); assay: FACS of K562 cells with BSA-coupled fluorescent beads (negative control), 37 C, 1 h
[3] = target: Human transferrin receptor on K562 cells (human) (UniProt P02786); assay: FACS of K562 cells with BSA-coupled fluorescent beads (negative control), 37 C with sodium azide, 1 h

Human transferrin receptor on K562 cells (human), sequence (P02786 whole entry): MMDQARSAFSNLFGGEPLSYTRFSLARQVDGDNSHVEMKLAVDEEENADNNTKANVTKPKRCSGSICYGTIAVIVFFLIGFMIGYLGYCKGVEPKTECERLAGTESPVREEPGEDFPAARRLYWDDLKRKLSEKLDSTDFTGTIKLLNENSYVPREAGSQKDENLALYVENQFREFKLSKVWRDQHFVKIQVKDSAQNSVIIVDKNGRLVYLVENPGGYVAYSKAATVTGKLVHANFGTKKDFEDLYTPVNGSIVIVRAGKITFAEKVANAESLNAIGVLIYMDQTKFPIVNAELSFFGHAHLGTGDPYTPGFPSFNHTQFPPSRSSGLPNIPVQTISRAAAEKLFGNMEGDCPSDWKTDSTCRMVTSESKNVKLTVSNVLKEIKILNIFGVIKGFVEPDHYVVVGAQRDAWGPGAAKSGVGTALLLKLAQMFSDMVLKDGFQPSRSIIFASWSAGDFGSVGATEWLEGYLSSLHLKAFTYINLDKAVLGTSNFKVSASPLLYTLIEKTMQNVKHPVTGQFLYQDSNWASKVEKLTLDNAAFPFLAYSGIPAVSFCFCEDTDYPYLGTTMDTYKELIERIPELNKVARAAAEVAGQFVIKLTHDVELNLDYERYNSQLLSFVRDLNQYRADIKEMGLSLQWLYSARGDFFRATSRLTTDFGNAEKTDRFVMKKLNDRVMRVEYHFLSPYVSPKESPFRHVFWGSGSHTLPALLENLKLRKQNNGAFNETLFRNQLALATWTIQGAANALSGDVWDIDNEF

BSA (negative control on fluorescent beads) (from UniProt P02769 25-607)
Mean fluorescence intensity (MFI) [1]: 1.45 MFI | Mean fluorescence intensity (MFI) [2]: 9.07 MFI | Mean fluorescence intensity (MFI) [3]: 3.49 MFI
